# Molecular target: T1, RegX3 (K204A) K204A (UniProt P9WGL9)
# T1 sequence: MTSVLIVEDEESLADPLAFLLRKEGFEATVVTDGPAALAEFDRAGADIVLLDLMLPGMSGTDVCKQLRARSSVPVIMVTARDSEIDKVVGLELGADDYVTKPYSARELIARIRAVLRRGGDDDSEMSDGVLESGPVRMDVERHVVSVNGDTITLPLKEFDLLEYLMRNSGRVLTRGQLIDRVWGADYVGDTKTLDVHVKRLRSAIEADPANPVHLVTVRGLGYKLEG
# Assay: EMSA
sequence,measurement,value
CAGCTTTCTTTGCGCTAATTTAGGCGTACTCACAGCATGGGATGACCTGGGCAAATACCTCATCTATCCGCCCGGGATAGCATGCGGCGCAGGCGGCGAATGCGGCGCAGATGAACGCAGAGTTAATTCTCACGCAACGGTCCGATATTG (double strand) [whiB3 promoter -307 to -157 (WT)],binding,no binding
